In experiment [1] the target is N-terminal domain of the ectodomain of Hepatitis C virus envelope glycoprotein E1, N43Q (Hepatitis C virus). Put plainly: SEC; size-exclusion chromatography; data not shown.
The target is the same in experiment [2]. The experiment can be described thus: reducing and nonreducing SDS-PAGE; 15% reducing (R) and nonreducing (NR) SDS-PAGE gels of purified deglycosylated HCV nE1; covalent dimer.

The results in this text go back to PMC4118829.

For “N-terminal domain of the ectodomain of Hepatitis C virus envelope glycoprotein E1, N43Q (domain or fragment)”, the stoichiometry N in experiment [1] and in experiment [2] was 2 in each case.
